Measurements as given in the nanobody polyreactivity screen of Harvey et al. (2022).

Test: yeast display, Sf9 membrane polyspecificity reagent, FACS + sequencing; frameworks hold sequencing errors
Procedure, shortened: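 Polyreactivity labels are assigned by the sorting gate from which each nanobody was recovered. The gates were low and high (top ~1%), set on anti-HA fluorescence for expression and streptavidin fluorescence for reagent binding. Before sorting, galactose-induced (36–48 hours) yeast display cells were stained for 1 hour at 4 °C with 10% biotinylated, detergent-solubilized Sf9 membrane reagent.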

| Sequence | polyreactivity (PSR sort gate) |
| --- | --- |
| QVQLVESGGGLVQAGGSLRLSCAASGSIFYDNDMGWYRQAPGNERELVAAISWSASDTYYADSVKGRFTISRDNAKNTVYLQMNSLKPDDTAVYYCNAEVYEWYVVYSALDYWGQGTQVTVSS | low polyreactivity |
| QVQLVESGGGLVQAGGSLRLSCAASGSIFYENDMGWYRQAPGKERELVAAISSGGTTNYADSVKGRFTISRDNAKNTVYLQMNSLKPEDTAVYYCAAEYPSVYYERFDYWGQGTQVTVSS | low polyreactivity |
| QVQLVESGGGLVQAGGSLRLSCAASGSIFYFHALGWYRQAPGKERELVAAITRRGGSTRYADSVKGRFTISRDNAKNTVYLQMNSLKPEDTAVYYCAAVKEYSYSYKSYDVYYWGQGTQVTVSS | high polyreactivity |
| QVQLVESGGGLVQAGGSLRLSCAASGSIFYFNAMGWYRQAPGKERELVAAITYSGGSTYYADSVKGRFTISRDNAKNTVYLQMNSLKPEDTAVYYCAAERRTFPLRNFDYWGQGTQVTVLS | low polyreactivity |
| QVQLVESGGGLVQAGGSLRLSCAASGSIFYFNAMGWYRQAPGKERELVAAITYSGGSTYYADSVKGRFTISRDNAKNTVYLQMNSLKPEDTAVYYCNAQVYYSVRGYPYGYYRNDYWGQGTQVTVSS | low polyreactivity |
| QVQLVESGGGLVQAGGSLRLSCAASGSIFYFYTMGWYRQAPGKEREFVAAINGIGGSTYYADSVKGRFTISRDNAKNTVYLQMNSLKPEDTAVYYCAADAPWFKRNARKYNYWGQGTQVTVSS | low polyreactivity |
| QVQLVESGGGLVQAGGSLRLSCAASGSIFYGNTMGWYRQAPGKERELVAAIDYRGDSTYYADSVKGRFTISRDNAKNTVYLQMNSLKPVDTAVYYCAADQTPVGQVYYGTLSIRDYWGQGTQVSVSS | low polyreactivity |
| QVQLVESGGGLVQAGGSLRLSCAASGSIFYGNTMGWYRQAPGKERELVAAISSGGSTKYADSVKGRFTISRDNAKNTVYLQMNSLKPEDTAVFYCAADLPRYWVTWMDYWGQGTQVTVSS | low polyreactivity |
| QVQLVESGGGLVQAGGSLRLSCAASGSIFYGNVMGWYRQAPGKERELVAAISWRGGSTYYADSVKGRFTMSRDNAKNTVYLPMNSLKPEDTAVYYCNAERYYYATYGYPIDYWGQGTQVTVSS | low polyreactivity |
| QVQLVESGGGLVQAGGSLRLSCAASGSIFYGYAMGWYRPAPGKERELVAAITSGGRTYYADSVKGRFTISRDNAKNTVYLQMNSLKPEDTAVYYCNKLNYWSVRYEYWGQGTQVTVSS | high polyreactivity |
| QVQLVESGGGLVQAGGSLRLSCAASGSIFYGYAMGWYRQAAGNERELVAAITTGGSTYCADSVKGRFTISRDNAKNTVYLQMNSLKPEDTAVYYCAAKYYTGGSFEMYYWGQGNQVTVSS | high polyreactivity |
| QVQLVESGGGLVQAGGSLRLSCAASGSIFYGYAMGWYRQAPGKEREFVASINSGVGSTYYADSVKGRFTISRDNAKNTVYLLMNSLKPEDTAVYYCNKVHRSFTYNDGQTPAYDYWGQRTQVTVSS | low polyreactivity |
| QVQLVESGGGLVQAGGSLRLSCAASGSIFYGYAMGWYRQAPGKERELVAAISWTGGRTYYADSVKGRFTISRDNAKNTVYLQMNSLKPEDTAVYYCNVRRYSVVSGGYWGQGTQVTVSS | high polyreactivity |
| QVQLVESGGGLVQAGGSLRLSCAASGSIFYGYAMGWYRQAPGKERELVAAISYSGDRTYYADSVKGRFTISRDNAKNTVYLQMNSLKPEDTAVYYCAARKHGGTVRGRRDYWGQGTQVTVSS | high polyreactivity |
| QVQLVESGGGLVQAGGSLRLSCAASGSIFYGYAMGWYRQAPGKERELVAAITDVGSTNYADSVKGRFTISRDNAKNTVYLQMNSLKPEDTAVYYCAADNYRRSSVDPFTDTMGYWGQGTQVTVSS | low polyreactivity |
| QVQLVESGGGLVQAGGSLRLSCAASGSIFYGYAMGWYRQAPGKERELVAVISRRGDSTYYADSVKGRFTISRDNAKNSVYLQMNSLKPEDTAVYYCASYGSLSKGFGYWGQGTQVTVSS | low polyreactivity |
| QVQLVESGGGLVQAGGSLRLSCAASGSIFYGYTMGWYRQAPGKERELVAAITYRGGRTYYADSVKGRFTISRDNAKNTDYLQMNSLKPEDTAVYYCAARYDYFSSKYGYWGQGTQVTVSS | high polyreactivity |
